We go through 1 molecule from article PMC2807882, “Conservation of DNA-binding specificity and oligomerisation properties within the p53 family”.

Holding throughout (assay): anisotropy competition; 25 mM NaPi, 225 mM NaCl, 10% v/v glycerol, 5 mM DTT, 0.2 mg/mL BSA, 22°C; 20 nM labelled DNA; pH not stated for the binding assay
Holding throughout (conditions): protein: recombinant; tags: N-terminal 6xHis-lipoyl-TEV tag, cleaved; chain copies: 4

The target of one data set is T1, ΔNp63α (Homo sapiens, UniProt Q9H3D4-2 1-586).
T1 sequence: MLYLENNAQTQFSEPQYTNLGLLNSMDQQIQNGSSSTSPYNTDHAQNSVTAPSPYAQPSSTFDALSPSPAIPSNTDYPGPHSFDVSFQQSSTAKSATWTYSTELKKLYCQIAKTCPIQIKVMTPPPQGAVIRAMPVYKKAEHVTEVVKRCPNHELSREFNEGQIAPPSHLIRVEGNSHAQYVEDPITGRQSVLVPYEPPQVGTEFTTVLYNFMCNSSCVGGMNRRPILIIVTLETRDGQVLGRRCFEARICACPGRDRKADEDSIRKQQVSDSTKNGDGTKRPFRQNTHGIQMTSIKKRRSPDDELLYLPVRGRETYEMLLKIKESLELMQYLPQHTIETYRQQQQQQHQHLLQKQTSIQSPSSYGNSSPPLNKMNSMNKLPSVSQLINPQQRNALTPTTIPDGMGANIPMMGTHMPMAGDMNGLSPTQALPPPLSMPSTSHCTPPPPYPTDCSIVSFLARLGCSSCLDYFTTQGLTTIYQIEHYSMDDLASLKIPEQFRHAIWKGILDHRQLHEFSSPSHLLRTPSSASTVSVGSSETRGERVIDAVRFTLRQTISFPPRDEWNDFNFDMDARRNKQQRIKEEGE

The next data set concerns the target T2, Drp53 (Danio rerio, UniProt P79734 1-373).
T2 sequence: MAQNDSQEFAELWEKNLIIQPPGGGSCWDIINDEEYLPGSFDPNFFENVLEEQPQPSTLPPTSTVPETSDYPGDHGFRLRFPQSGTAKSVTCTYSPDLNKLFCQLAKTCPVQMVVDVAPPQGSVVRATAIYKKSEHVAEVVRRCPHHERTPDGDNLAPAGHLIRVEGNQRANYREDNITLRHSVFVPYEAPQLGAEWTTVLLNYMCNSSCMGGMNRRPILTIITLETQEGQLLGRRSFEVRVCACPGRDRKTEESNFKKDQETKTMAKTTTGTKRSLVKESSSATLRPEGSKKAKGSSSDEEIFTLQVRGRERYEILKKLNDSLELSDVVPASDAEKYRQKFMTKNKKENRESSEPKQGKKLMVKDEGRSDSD

The next data set concerns the target T3, Dmp53 (Drosophila melanogaster, UniProt Q9N6D8 1-385).
T3 sequence: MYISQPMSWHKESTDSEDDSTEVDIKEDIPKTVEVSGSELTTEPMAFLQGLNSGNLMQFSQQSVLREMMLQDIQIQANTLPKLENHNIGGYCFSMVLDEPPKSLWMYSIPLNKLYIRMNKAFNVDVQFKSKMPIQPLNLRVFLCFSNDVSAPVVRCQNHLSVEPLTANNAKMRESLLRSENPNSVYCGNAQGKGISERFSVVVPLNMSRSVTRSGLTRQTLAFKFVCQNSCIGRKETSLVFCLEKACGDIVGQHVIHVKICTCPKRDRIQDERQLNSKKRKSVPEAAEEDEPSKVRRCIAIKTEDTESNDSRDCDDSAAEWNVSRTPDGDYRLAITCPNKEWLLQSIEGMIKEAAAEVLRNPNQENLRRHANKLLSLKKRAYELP

B1: Ref competitor (dsDNA)
DNA 1: CGCGGACATGTCCGGACATGTCCCGC
DNA 2: GCGGGACATGTCCGGACATGTCCGCG
Regarding B1, the Kd was -7.21 log10(M) with ΔNp63α, -7.42 log10(M) with Drp53 and -7.56 log10(M) with Dmp53.
